Residue numbers refer to the chain shown, from its start. Values belong to the binder of their own block, whether it stands above or below them.
Experiments:
Experiment in all cases: cell-based or functional assay
[1] = target: T1, human matriptase-2 ECD protein his tag (human, UniProt Q8IU80 78-811)
T1 sequence: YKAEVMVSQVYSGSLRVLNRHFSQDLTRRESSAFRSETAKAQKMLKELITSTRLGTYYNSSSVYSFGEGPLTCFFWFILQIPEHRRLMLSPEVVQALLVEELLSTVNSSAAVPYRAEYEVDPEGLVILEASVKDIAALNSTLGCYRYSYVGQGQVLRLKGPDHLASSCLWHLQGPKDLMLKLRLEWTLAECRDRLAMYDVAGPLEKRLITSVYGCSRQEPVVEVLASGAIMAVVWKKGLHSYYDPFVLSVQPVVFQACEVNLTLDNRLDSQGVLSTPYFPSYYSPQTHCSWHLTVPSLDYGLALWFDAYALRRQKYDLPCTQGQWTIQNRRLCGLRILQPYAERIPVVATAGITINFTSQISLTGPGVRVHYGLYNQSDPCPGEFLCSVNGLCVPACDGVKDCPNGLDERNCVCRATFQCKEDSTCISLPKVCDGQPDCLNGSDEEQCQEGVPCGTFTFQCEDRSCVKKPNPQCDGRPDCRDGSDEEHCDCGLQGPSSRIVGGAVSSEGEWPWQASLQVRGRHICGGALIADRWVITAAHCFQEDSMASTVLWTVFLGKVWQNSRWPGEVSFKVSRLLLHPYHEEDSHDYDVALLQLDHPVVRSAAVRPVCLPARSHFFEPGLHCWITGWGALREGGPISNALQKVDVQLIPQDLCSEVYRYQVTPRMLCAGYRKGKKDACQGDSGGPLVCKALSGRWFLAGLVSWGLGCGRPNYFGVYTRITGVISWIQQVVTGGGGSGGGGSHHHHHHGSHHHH

[2] = target: T2, mouse matriptase-2 ECD protein his tag (mouse, UniProt Q9DBI0 80-811)
T2 sequence: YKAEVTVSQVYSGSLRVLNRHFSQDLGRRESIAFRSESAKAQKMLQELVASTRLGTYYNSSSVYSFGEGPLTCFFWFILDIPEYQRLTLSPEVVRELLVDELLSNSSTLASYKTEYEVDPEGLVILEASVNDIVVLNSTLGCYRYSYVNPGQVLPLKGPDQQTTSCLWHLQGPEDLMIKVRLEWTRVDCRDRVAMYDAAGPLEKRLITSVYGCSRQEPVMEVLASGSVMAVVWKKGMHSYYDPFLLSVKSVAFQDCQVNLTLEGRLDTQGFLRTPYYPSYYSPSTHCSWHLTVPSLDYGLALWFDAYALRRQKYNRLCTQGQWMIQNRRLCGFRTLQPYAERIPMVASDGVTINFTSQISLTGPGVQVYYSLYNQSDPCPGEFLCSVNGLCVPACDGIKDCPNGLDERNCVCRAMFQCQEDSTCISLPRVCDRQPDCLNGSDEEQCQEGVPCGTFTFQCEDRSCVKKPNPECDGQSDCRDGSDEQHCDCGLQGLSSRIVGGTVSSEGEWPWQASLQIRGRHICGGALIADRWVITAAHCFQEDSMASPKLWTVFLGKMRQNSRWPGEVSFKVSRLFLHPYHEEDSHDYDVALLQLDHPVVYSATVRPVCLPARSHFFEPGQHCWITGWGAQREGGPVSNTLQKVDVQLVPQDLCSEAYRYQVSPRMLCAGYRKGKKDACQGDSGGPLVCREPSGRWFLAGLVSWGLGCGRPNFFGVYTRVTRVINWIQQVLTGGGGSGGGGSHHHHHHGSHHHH

[3] = target: T3, human MTP-2 expressed on HEK293 cells (human, UniProt Q8IU80 1-811)
T3 sequence: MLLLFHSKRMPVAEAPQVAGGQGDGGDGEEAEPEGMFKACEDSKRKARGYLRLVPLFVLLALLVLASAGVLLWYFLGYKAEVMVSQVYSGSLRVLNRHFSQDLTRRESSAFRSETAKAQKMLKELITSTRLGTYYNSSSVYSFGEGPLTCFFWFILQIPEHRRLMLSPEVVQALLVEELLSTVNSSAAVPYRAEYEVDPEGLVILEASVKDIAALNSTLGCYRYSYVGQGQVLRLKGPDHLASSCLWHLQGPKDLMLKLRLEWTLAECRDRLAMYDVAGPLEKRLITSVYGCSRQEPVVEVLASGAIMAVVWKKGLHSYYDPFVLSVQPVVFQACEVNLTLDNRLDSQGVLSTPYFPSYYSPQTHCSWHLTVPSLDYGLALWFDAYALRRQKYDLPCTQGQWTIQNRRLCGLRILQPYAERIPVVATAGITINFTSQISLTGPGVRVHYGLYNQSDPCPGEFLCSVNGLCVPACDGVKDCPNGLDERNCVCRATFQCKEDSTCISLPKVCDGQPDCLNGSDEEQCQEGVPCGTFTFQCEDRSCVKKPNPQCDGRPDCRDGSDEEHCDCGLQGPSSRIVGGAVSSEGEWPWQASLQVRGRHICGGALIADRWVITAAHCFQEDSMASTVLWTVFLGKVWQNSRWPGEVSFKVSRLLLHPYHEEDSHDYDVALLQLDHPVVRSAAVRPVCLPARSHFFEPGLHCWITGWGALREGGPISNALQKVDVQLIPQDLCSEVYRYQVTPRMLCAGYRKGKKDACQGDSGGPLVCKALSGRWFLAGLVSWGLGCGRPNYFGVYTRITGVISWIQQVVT

B2: NORI-027 (antibody, human IgG4 S228P, lambda, V domains shown)
VH: QVQLVQSGAELKKPGASVKVSCKASGYTFNNYGISWVRQAPGQGLEWMGWISAYSGYTNIAQKFQGRVTMTTDTSTNTVYMELGSLRSDDTAVYYCAREGYSNFEDWFDPWGQGTLVTVSS
VL: SYELTQPPSVSVSPGQTARITCSGDELPKKYAYWYQQKSGQAPVLVIYEDSKRPSGIPERISGSNSGTMATLTISGAQVEDEADYYCYSTDSSGNHRVFGGGTKLTVLG
- Inhibition enzymatic activity human MTP2 protein (IC50) [1]: 24.9 nM
- Inhibition enzymatic activity mouse MTP2 protein (IC50) [2]: 40.8 nM
- Inhibition enzymatic activity human MTP2 on cells (IC50) [3]: 16.9 nM

B3: NORI-025 (antibody, human IgG4 S228P, lambda, V domains shown)
VH: QVQLVESGGGVVQPGRSLRLSCTASGVTFTNFDMHWVRQTPGKGLEWVAVIWYDESYSYYADSVQGRFTISRDNSKNSLYLQMNSLRADDTAVYYCARGWTGSYVFDYWGQGTLVTVSS
VL: QSVLTQPPSVSEAPRQRVTISCSGSSSNIGNNAVNWYQQLPGKAPKLLISYDDLLPSGVSDRFSGSKSGTSASLAISGLQSADEADYYCAAWDDSLNAVVFGGGTKLTVLG
- Inhibition enzymatic activity human MTP2 protein (IC50) [1]: 3.27 nM
- Inhibition enzymatic activity mouse MTP2 protein (IC50) [2]: 6.21 nM
- Inhibition enzymatic activity human MTP2 on cells (IC50) [3]: 1.88 nM

B5: NORI-031 (antibody, human IgG4 S228P, lambda, V domains shown)
VH: QLQLQESGPGLVKPSETLSLTCTVSGGAISSSNYFWGWIRQSPGKGLEWIGSMYYTGITYYNPSLKSRVTISVDTSKNQLSLKVNSVTAADTAVYYCARQDGFRTGWFDPWGQGTLVTVSS
VL: SYELTQPPSVSVSPGQTATLTCSGDKLGDNYVCWFQQKPGQSPLLVMYQDTKRPSGIPERFSGSNSGNTATLTISGTQALDEADYYCQAWDSRTVVFGGGTKLTVLG
- Inhibition enzymatic activity human MTP2 protein (IC50) [1]: 10.3 nM
- Inhibition enzymatic activity mouse MTP2 protein (IC50) [2]: 27 nM
- Inhibition enzymatic activity human MTP2 on cells (IC50) [3]: 3.51 nM

B6: NORI-028 (antibody, human IgG4 S228P, lambda, V domains shown)
VH: EVQLVESGGAVVRPGGSLRLSCAISGFILDDYGMNWVRQGPGKGLEWVAGISWNGDSTRYADSVKGRFTISRDNAQNSLYLQMNSLRAEDTALYFCAREYSGDFYYYYYGMDVWGQGTTVTVSS
VL: QSALTQPPSASGSPGQSVTISCTGTSSDVGFYNFVSWYQHHPGKAPKLMIYEVSKRPSGVPDRFSGSKSANTASLTVSGLQAEDEADYYCSSYAGSNNLVFGGGTKLTVLG
- Inhibition enzymatic activity human MTP2 protein (IC50) [1]: 11.8 nM
- Inhibition enzymatic activity mouse MTP2 protein (IC50) [2]: 8.96 nM
- Inhibition enzymatic activity human MTP2 on cells (IC50) [3]: 3.85 nM

B7: NORI-029 (antibody, human IgG4 S228P, lambda, V domains shown)
VH: EVQLVESGGGLVKPGRSLRLSCTASGFTFGDYVMSWFRQAPGKGLEWVGFIRSKPYSETTEYAASVRGRFTISRDDSKSIAYLQMNSLKTEDTAVYYCTRALYDLLTGPWMGGDYFYALDVWGQGTTVTVSS
VL: B6 VL with F31D, F34Y, H40Q, A70G, S91K
- Inhibition enzymatic activity human MTP2 protein (IC50) [1]: 2 nM
- Inhibition enzymatic activity mouse MTP2 protein (IC50) [2]: 9.35 nM
- Inhibition enzymatic activity human MTP2 on cells (IC50) [3]: 0.243 nM

B9: NORI-026 (antibody, human IgG4 S228P, kappa, V domains shown)
VH: QVQLVESGGGVVQPGRSLRLSCAASGFTFSYFGMHWVRQAPGKGLEWVADISYDGSDENYADSVKGRFTISRDNSKNTLSLQMNSLRAEDTAVYYCAKETYQSLMYLEYWGQGILVTVSS
VL: AIQMTQSPSSLSASVGDRVTITCRASQDIRNDLGWYQQKPGKAPKLLIYTAPSLQSGVPSRFSGSGSGTDFTLTIGSLQPEDFATYYCLQDYNYPWTFGQGTKVEIKR
- Inhibition enzymatic activity human MTP2 protein (IC50) [1]: 5.11 nM
- Inhibition enzymatic activity mouse MTP2 protein (IC50) [2]: 6.22 nM
- Inhibition enzymatic activity human MTP2 on cells (IC50) [3]: 0.817 nM

B10: NORI-023 (antibody, human IgG4 S228P, lambda, V domains shown)
VH: QVQLVESGGGLVKPGGSLRLSCAASGFTFSDYYMSWIRQAPGKGLEWVSYISSSGGNRYYADSVKGRFTISRDNAKNSLYLQMNSLRAEDTAVYYCARGGLRYFDWADFWGQGTLVTVSS
VL: QSVLTQPPSVSAAPGQKVTISCSGSSSNIGNNYVSWYQQLPGTAPKLLIYDNNKRPSGIPDRFSGSKSGTSATLGIPELQTGDEADYYCGTWDNSLSAGVFGGGTKLTVLG
- Inhibition enzymatic activity human MTP2 protein (IC50) [1]: 5.45 nM
- Inhibition enzymatic activity mouse MTP2 protein (IC50) [2]: 2.92 nM
- Inhibition enzymatic activity human MTP2 on cells (IC50) [3]: 13.2 nM

The next lines start with the values.

- Inhibition enzymatic activity human MTP2 protein (IC50) [1]: 10.5 nM
- Inhibition enzymatic activity mouse MTP2 protein (IC50) [2]: 6.8 nM
- Inhibition enzymatic activity human MTP2 on cells (IC50) [3]: 8.04 nM
B1: NORI-024 (antibody, human IgG4 S228P, lambda, V domains shown)
VH: B2 VH with A9P, N30T, Y32F, Y57F, I60F, T69S, N77S, G84K, F104Y
VL: B2 VL with E26A

- Inhibition enzymatic activity human MTP2 protein (IC50) [1]: 1.88 nM
- Inhibition enzymatic activity mouse MTP2 protein (IC50) [2]: 6.66 nM
- Inhibition enzymatic activity human MTP2 on cells (IC50) [3]: 0.227 nM
B4: NORI-030 (antibody, human IgG4 S228P, lambda, V domains shown)
VH: QVQLVESGGGVVQPGRSLRLSCAASGFTFSNFDMDWVRQAPGRGLEWVALISYDGSKKYYADSVKGRFTISRDNSKNTLYLQMNSLRGEDTAVYFCAKEGYGGYDGFDYWGQGTLVTVSS
VL: B3 VL with S26T, D53Y, L54V, L55V, P56S, A90S, A91T, S95G, A98G

- Inhibition enzymatic activity human MTP2 protein (IC50) [1]: 1.6 nM
- Inhibition enzymatic activity mouse MTP2 protein (IC50) [2]: 0.716 nM
- Inhibition enzymatic activity human MTP2 on cells (IC50) [3]: 1.66 nM
B8: NORI-032 (antibody, human IgG4 S228P, lambda, V domains shown)
VH: QVQLVQSGAEVRKPGAAVKVSCKASGYTFSSFGITWIRQAPGQGLEWMGWISAYNGISNSAQKVQGRVTMTTDTSTSTAYMELRSLRSDDSAVYYCARDRANRDALDVWGQGTKVTVSL
VL: SHELTQPPSMSVSPGQTASITCSGDELGDRYACWYQQKPGQSPVLVIYQDTKRPSGIPERFSGSISGNTATLTISGTQAMDEADYYCQAWDSSTVVFGGGTKLTVLG

- Inhibition enzymatic activity human MTP2 protein (IC50) [1]: 4.36 nM
- Inhibition enzymatic activity mouse MTP2 protein (IC50) [2]: 2.98 nM
- Inhibition enzymatic activity human MTP2 on cells (IC50) [3]: 0.765 nM
B11: NORI-022 (antibody, human IgG4 S228P, lambda, V domains shown)
VH: EVRLVESGGGLVQSGGSLRLSCAASGFTFSTYTMNWVRQAPGKGLEWVSYISIRNSIIDYADSVKGRFTISRDNAKNSLYLQMNSLRDEDTAVYYCAREEFCGTTSCYFLDYWGQGILVTVSS
VL: QSVLTQPPSVSGAPGQRVTISCTGSSSNIGAGYDVHWYQQLPGTAPKLLIYGNSNRPSGVPDRFSGSKSGTSASLAITGLQAEDEADYYCQSYDSSLSGYVFGTGTKVTVLG
